Experimental findings from paper doi:10.1101/784462, “Rv3722c governs aspartate-dependent nitrogen metabolism in Mycobacterium tuberculosis” (bioRxiv, 2019) are described below.

The data set concerns the molecule itself. In words: crystal structure; Rv3722c (~40 mg/mL) co-crystallised with 5 mM L-glutamic acid (PDB 6U78) or 10 mM L-kynurenine (PDB 6U7A), sitting drop vapor diffusion at 17 °C.

B1: Rv3722c (aspartate aminotransferase of Mycobacterium tuberculosis) (enzyme)
chain: SFDSLSPQELAALHARHQQDYAALQGMKLALDLTRGKPSAEQLDLSNQLLSLPGDDYRDPEGTDTRNYGGQHGLPGLRAIFAELLGIAVPNLIAGNNSSLELMHDIVAFSMLYGGVDSPRPWIQEQDGIKFLCPVPGYDRHFAITETMGIEMIPIPMLQDGPDVDLIEELVAVDPAIKGMWTVPVFGNPSGVTYSWETVRRLVQMRTAAPDFRLFWDNAYAVHTLTLDFPRQVDVLGLAAKAGNPNRPYVFASTSKITFAGGGVSFFGGSLGNIAWYLQYAGKKSIGPDKVNQLRHLRFFGDADGVRLHMLRHQQILAPKFALVAEVLDQRLSESKIASWTEPKGGYFISLDVLPGTARRTVALAKDVGIAVTEAGASFPYRKDPDDKNIRIAPSFPSVPDLRNAVDGLATCALLAATETLLNQGLASSAPNVR
notes: also called AspAT; not shown: His6, C-terminal, cleaved
Turning to B1, the binding result is on record as “binds”.
